Assay results published in article PMC12700808.

Assays:
[1] = target: Nup98-type FG domain comprising 52 perfect 12-mer GLFG repeat units (prf.GLFG52x12); experiment: partitioning into an FG phase (confocal laser scanning microscopy); prf.GLFG52x12 domain phase-separated into FG particles; fluorescent species added, scanned 1 h later; 50 mM Tris-HCl pH 7.5, 150 or 250 mM NaCl, 0.5 mM IP6; signal in:out, or rim and centre normalised to wild type
[2] = target: Nup98-type FG domain comprising 52 perfect 12-mer GLFG repeat units (prf.GLFG52x12); experiment: FG phase partitioning assay
[3] = target: Nup98-type FG domain comprising 52 perfect 12-mer GLFG repeat units (prf.GLFG52x12); experiment: FG phase partitioning assay; remark: listed apart in the source
[4] = target: Nup98-type FG domain comprising 52 perfect 12-mer GLFG repeat units (prf.GLFG52x12); experiment: FG phase partitioning assay; remark: listed apart in the source
[5] = target: Nup98-type FG domain comprising 52 perfect 12-mer GLFG repeat units (prf.GLFG52x12); experiment: FG phase partitioning assay; remark: listed apart in the source
[6] = target: FG repeat domain of 669 residues with non-charged spacers and 36 FSFG motifs; experiment: FG phase partitioning assay
[7] = target: Nup98-type FG domain comprising 52 perfect 12-mer GLFG repeat units (prf.GLFG52x12); experiment: FG phase partitioning assay; remark: listed apart in the source
[8] = fluorescence intensity at rim of FG particles
[9] = fluorescence intensity in center of FG particles
[10] = signal in center of FG particles

CLPs of CA H87E, filled with sinGFP4a (complex)
fold reduction of partitioning against wild type [1]: 15 fold

CLPs of CA I91E, filled with sinGFP4a (complex)
fold reduction of partitioning against wild type [1]: > 10 fold

20-nm T1 pentamer-only capsid spheres (CA P1A+G60A+G61P), EGFP-labelled G94D
response [2, 8]: 15000
response [2, 9]: 9600
percent of parent ([2]; signal at rim of FG particles): 79%

20-nm T1 pentamer-only capsid spheres (CA P1A+G60A+G61P), EGFP-labelled Q9E
response [2, 8]: 15000
response [2, 9]: 14000
percent of parent ([2]; signal at rim of FG particles): 79%
percent of parent [2, 10]: 74%

CLPs of CA G94D, filled with sinGFP4a (complex)
partitioning, percent of the wild-type level (% of the wild-type level) [1]: 5

conical CLPs (capsid-like particles) of wild-type CA (CA-P1A), filled with sinGFP4a V86G
response [2, 8]: 27000
response [2, 9]: 31000
percent of parent ([2]; signal at rim of FG particles): 90%
percent of parent [2, 10]: 90%

CLPs of CA M96E, filled with sinGFP4a (complex)
fold reduction of partitioning against wild type [1]: > 10 fold

20-nm T1 pentamer-only capsid spheres (CA P1A+G60A+G61P), EGFP-labelled N57A
response [2, 8]: 8500
response [2, 9]: 400
percent of parent ([2]; signal at rim of FG particles): 45%
percent of parent [2, 10]: 2.1%

conical CLPs (capsid-like particles) of wild-type CA (CA-P1A), filled with sinGFP4a N57A; A92E
response [2, 8]: 14000
response [2, 9]: 1100
percent of parent ([2]; signal at rim of FG particles): 52%
percent of parent [2, 10]: 4.2%

20-nm T1 pentamer-only capsid spheres (CA P1A+G60A+G61P), EGFP-labelled H87Q; A92E; G94D
response [2, 8]: 2300
response [2, 9]: 190
percent of parent ([2]; signal at rim of FG particles): 12%
percent of parent [2, 10]: 1%

CLPs of CA R132K, filled with sinGFP4a (complex)
reduction in partitioning against wild type [1]: 50%

conical CLPs (capsid-like particles) of wild-type CA (CA-P1A), filled with sinGFP4a K182R
percent of parent [3, 10]: 110%
response [4, 8]: 28000
response [4, 9]: 34000

conical CLPs (capsid-like particles) of wild-type CA (CA-P1A), filled with sinGFP4a G116A
response [4, 8]: 27000
response [4, 9]: 32000

conical CLPs (capsid-like particles) of wild-type CA (CA-P1A), filled with sinGFP4a N57A
percent of parent ([3]; signal at rim of FG particles): 80%
response [2, 8]: 23000
response [2, 9]: 1800
percent of parent ([2]; signal at rim of FG particles): 85%
percent of parent [2, 10]: 7%
response [4, 8]: 21000
response [4, 9]: 1600

conical CLPs (capsid-like particles) of wild-type CA (CA-P1A), EGFP-labelled (complex)
partition coefficient (in:out) [1]: 1000

mCherry
partition coefficient (in:out) [1]: < 0.1

conical CLPs (capsid-like particles) of wild-type CA (CA-P1A), filled with sinGFP4a R97K
response [5, 8]: 20000
response [5, 9]: 5000
percent of parent ([2]; signal at rim of FG particles): 90%
percent of parent [2, 10]: 20%

conical CLPs (capsid-like particles) of wild-type CA (CA-P1A), filled with sinGFP4a A88G
response [2, 8]: 26000
response [2, 9]: 30000
percent of parent ([2]; signal at rim of FG particles): 90%
percent of parent [2, 10]: 90%

EGFP
partition coefficient (in:out) [1]: < 0.1

20-nm T1 pentamer-only capsid spheres (CA P1A+G60A+G61P), EGFP-labelled G89V
response [6, 8]: 31000
response [6, 9]: 34000
percent of parent ([6]; signal at rim of FG particles): 160%
percent of parent [6, 10]: 170%

conical CLPs (capsid-like particles) of wild-type CA (CA-P1A), filled with sinGFP4a L136M
response [4, 8]: 28000
response [4, 9]: 30000

20-nm T1 pentamer-only capsid spheres (CA P1A+G60A+G61P), EGFP-labelled P90A
response [6, 8]: 45000
response [6, 9]: 51000
percent of parent ([6]; signal at rim of FG particles): 240%
percent of parent [6, 10]: 260%

conical CLPs (capsid-like particles) of wild-type CA (CA-P1A), filled with sinGFP4a I91G
response [2, 8]: 30000
response [2, 9]: 33000

conical CLPs (capsid-like particles) of wild-type CA (CA-P1A), filled with sinGFP4a N57A; H87Q; A92E; G94D
response [2, 8]: 370
response [2, 9]: 440
percent of parent ([2]; signal at rim of FG particles): 1.4%
percent of parent [2, 10]: 1.7%

conical CLPs (capsid-like particles) of wild-type CA (CA-P1A), filled with sinGFP4a G89V
percent of parent [3, 10]: 110%
response [4, 8]: 29000
response [4, 9]: 30000

conical CLPs (capsid-like particles) of wild-type CA (CA-P1A), filled with sinGFP4a N74D
percent of parent ([3]; signal at rim of FG particles): 110%
percent of parent [3, 10]: 110%
response [4, 8]: 30000
response [4, 9]: 33000

20-nm T1 pentamer-only capsid spheres (CA P1A+G60A+G61P), EGFP-labelled H87Q
response [2, 8]: 15000
response [2, 9]: 13000
percent of parent ([2]; signal at rim of FG particles): 79%
percent of parent [2, 10]: 68%

conical CLPs (capsid-like particles) of wild-type CA (CA-P1A), filled with sinGFP4a A77V
percent of parent [3, 10]: 94%
response [4, 8]: 27000
response [4, 9]: 29000

conical CLPs (capsid-like particles) of wild-type CA (CA-P1A), filled with sinGFP4a V86E; A88E; I91E; A92E
percent of parent ([7]; signal at rim of FG particles): 1%
percent of parent [7, 10]: 0.7%
response [2, 8]: 260
response [2, 9]: 190

conical CLPs (capsid-like particles) of wild-type CA (CA-P1A), filled with sinGFP4a N57A; G94D
response [2, 8]: 17000
response [2, 9]: 1200
percent of parent ([2]; signal at rim of FG particles): 63%
percent of parent [2, 10]: 4.6%

CLPs of CA V86E, filled with sinGFP4a (complex)
fold reduction of partitioning against wild type [1]: > 10 fold

CLPs of CA H87Q, filled with sinGFP4a (complex)
reduction in partitioning against wild type [1]: 50%

conical CLPs (capsid-like particles) of wild-type CA (CA-P1A), filled with sinGFP4a M96G
response [2, 8]: 28000
response [2, 9]: 30000
percent of parent [2, 10]: 90%

conical CLPs (capsid-like particles) of wild-type CA (CA-P1A), filled with sinGFP4a Q9E; A92E
percent of parent ([7]; signal at rim of FG particles): 36%
percent of parent [7, 10]: 2.5%
response [2, 8]: 9700
response [2, 9]: 660

20-nm T1 pentamer-only capsid spheres (CA P1A+G60A+G61P), EGFP-labelled A92E
response [2, 8]: 11000
response [2, 9]: 5300
percent of parent ([2]; signal at rim of FG particles): 58%
percent of parent [2, 10]: 28%

conical CLPs (capsid-like particles) of wild-type CA (CA-P1A), filled with sinGFP4a A92G
response [2, 8]: 26000
response [2, 9]: 32000
percent of parent ([2]; signal at rim of FG particles): 90%
percent of parent [2, 10]: 90%

conical CLPs (capsid-like particles) of wild-type CA (CA-P1A), filled with sinGFP4a R143A
response [4, 8]: 28000
response [4, 9]: 30000

conical CLPs (capsid-like particles) of wild-type CA (CA-P1A), filled with sinGFP4a E45A
percent of parent ([3]; signal at rim of FG particles): 110%
percent of parent [3, 10]: 110%
response [4, 8]: 29000
response [4, 9]: 34000

conical CLPs (capsid-like particles) of wild-type CA (CA-P1A), filled with sinGFP4a H87G
response [2, 8]: 30000
response [2, 9]: 30000
percent of parent [2, 10]: 90%

conical CLPs (capsid-like particles) of wild-type CA (CA-P1A), filled with sinGFP4a N57A; A92E; G94D
response [2, 8]: 4300
response [2, 9]: 660
percent of parent ([2]; signal at rim of FG particles): 16%
percent of parent [2, 10]: 2.5%

20-nm T1 pentamer-only capsid spheres (CA P1A+G60A+G61P), EGFP-labelled V86E; A88E; I91E; A92E
response [2, 8]: 74
percent of parent ([2]; signal at rim of FG particles): 0.4%
percent of parent [2, 10]: 0.4%

CLPs of CA A92E, filled with sinGFP4a (complex)
fold reduction of partitioning against wild type [1]: > 10 fold
partitioning, percent of the wild-type level (% of the wild-type level) [1]: 5

20-nm T1 pentamer-only capsid spheres (CA P1A+G60A+G61P), EGFP-labelled Q9E; A92E
response [2, 8]: 5800
response [2, 9]: 290
percent of parent ([2]; signal at rim of FG particles): 31%
percent of parent [2, 10]: 1.5%

conical CLPs (capsid-like particles) of wild-type CA (CA-P1A), filled with sinGFP4a P90A
percent of parent ([3]; signal at rim of FG particles): 110%
response [4, 8]: 29000
response [4, 9]: 32000

CLPs of CA A88E, filled with sinGFP4a (complex)
fold reduction of partitioning against wild type [1]: > 10 fold

conical CLPs (capsid-like particles) of wild-type CA (CA-P1A), filled with sinGFP4a H87Q; A92E; G94D
percent of parent [7, 10]: 2.6%
response [2, 8]: 8200
response [2, 9]: 670
